Target: T1, HPV18E7蛋白 (in HeLa cells and HPV18-positive cervical adenocarcinoma tissue) (HPV18, UniProt P06788 1-105)
T1 construct: whole, on cells; Native intracellular protein in cells, tissue sections or total lysate; also called HeLa细胞总蛋白中的HPV18E7蛋白
T1 sequence: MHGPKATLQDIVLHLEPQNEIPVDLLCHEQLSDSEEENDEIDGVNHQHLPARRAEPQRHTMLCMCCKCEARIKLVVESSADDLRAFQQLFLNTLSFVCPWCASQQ
Experiment: immunocytochemistry on HeLa cells (HPV18 positive), DAB

B1: 抗HPV16E7蛋白单抗69E2 (antibody, mouse IgG2a, kappa, V domains shown)
VH: QVQLQQSGPEVVRPGVSVKISCKGSGYTFTDYAMHWVKQSHAKSLEWIGVISTYNGNTNYNQKFKGKATVTVDKSSSTAYMELARLTSEDSAIYYCARRGFGNSWFAYWGQGTLVTVSA
VL: ENVLTQSPAIMSASPGGKVTMTCSASSGVSYMHWYQQKSSTSPKLWIYDTSNLASGVPGRFSGSGSGNSYSLTISSMEAEDVATYYCFQGSGYPFTFGSGTKLEIRR
notes: Mouse IgG2a from hybridoma, purified from ascites; also called HPV16E7-69E2; CCTCC NO:C2019181
Does B1 bind?
Result: no binding (tested: 7.8125ng/孔到1μg/孔)
